Reference: US20250002593A1 (INMAGENE PTE, published 2025)

B1: 5F7-2a8-QA (antibody, human IgG4 S228P, kappa)
heavy: EVQLVESGGGLVKPGGSLRLSCAASGFAFGDYYMNWVRQAPGKGLEWVALIRNKAAGYTIYYSAPVKGRFTISRDDSKSTLYLQMNSLKTEDTAVYYCVRDMTIYDGYYVDYALDYWGQGTLVTVSSASTKGPSVFPLAPCSRSTSESTAALGCLVKDYFPEPVTVSWNSGALTSGVHTFPAVLQSSGLYSLSSVVTVPSSSLGTKTYTCNVDHKPSNTKVDKRVESKYGPPCPPCPAPEFLGGPSVFLFPPKPKDTLMISRTPEVTCVVVDVSQEDPEVQFNWYVDGVEVHNAKTKPREEQFNSTYRVVSVLQVLHQDWLNGKEYKCKVSNKGLPSSIEKTISKAKGQPREPQVYTLPPSQEEMTKNQVSLTCLVKGFYPSDIAVEWESNGQPENNYKTTPPVLDSDGSFFLYSRLTVDKSRWQEGNVFSCSVMHEALHAHYTQKSLSLSLGK
light: DIVMTQSPSSVSASVGDRVTITCRASRNINIWLSWYQQKPGKAPKLFIYKASNLHTGVPSRFSGSGSGTDFTLTISSLQPEDFATYYCLQSQSYPLTFGQGTKLEIKRTVAAPSVFIFPPSDEQLKSGTASVVCLLNNFYPREAKVQWKVDNALQSGNSQESVTEQDSKDSTYSLSSTLTLSKADYEKHKVYACEVTHQGLSSPVTKSFNRGEC
notes: 5F7-2a8 with T307Q/N434A in the IgG4 (S228P) Fc; also called 5F7-QA
B2: 5F7-2a8-YTE (antibody, human IgG4 S228P, kappa)
heavy: EVQLVESGGGLVKPGGSLRLSCAASGFAFGDYYMNWVRQAPGKGLEWVALIRNKAAGYTIYYSAPVKGRFTISRDDSKSTLYLQMNSLKTEDTAVYYCVRDMTIYDGYYVDYALDYWGQGTLVTVSSASTKGPSVFPLAPCSRSTSESTAALGCLVKDYFPEPVTVSWNSGALTSGVHTFPAVLQSSGLYSLSSVVTVPSSSLGTKTYTCNVDHKPSNTKVDKRVESKYGPPCPPCPAPEFLGGPSVFLFPPKPKDTLYITREPEVTCVVVDVSQEDPEVQFNWYVDGVEVHNAKTKPREEQFNSTYRVVSVLTVLHQDWLNGKEYKCKVSNKGLPSSIEKTISKAKGQPREPQVYTLPPSQEEMTKNQVSLTCLVKGFYPSDIAVEWESNGQPENNYKTTPPVLDSDGSFFLYSRLTVDKSRWQEGNVFSCSVMHEALHNHYTQKSLSLSLGK
light: DIVMTQSPSSVSASVGDRVTITCRASRNINIWLSWYQQKPGKAPKLFIYKASNLHTGVPSRFSGSGSGTDFTLTISSLQPEDFATYYCLQSQSYPLTFGQGTKLEIKRTVAAPSVFIFPPSDEQLKSGTASVVCLLNNFYPREAKVQWKVDNALQSGNSQESVTEQDSKDSTYSLSSTLTLSKADYEKHKVYACEVTHQGLSSPVTKSFNRGEC
notes: 5F7-2a8 with M252Y/S254T/T256E in the IgG4 (S228P) Fc; also called 5F7-YTE

Assays:
[1] = biological target: T1, recombinant hFcRn-his/B2M heterodimer protein (Acrobio, Cat #FCM-H82W4) (human, UniProt P55899 24-297; P61769 21-119); assay: BLI (Gator) at pH 6.0, hFcRn-his/B2M on anti-his sensor, antibody analyte
T1 construct: Bought heterodimer
T1 sequence (P55899 24-297 limits assumed, chain 1 of 2): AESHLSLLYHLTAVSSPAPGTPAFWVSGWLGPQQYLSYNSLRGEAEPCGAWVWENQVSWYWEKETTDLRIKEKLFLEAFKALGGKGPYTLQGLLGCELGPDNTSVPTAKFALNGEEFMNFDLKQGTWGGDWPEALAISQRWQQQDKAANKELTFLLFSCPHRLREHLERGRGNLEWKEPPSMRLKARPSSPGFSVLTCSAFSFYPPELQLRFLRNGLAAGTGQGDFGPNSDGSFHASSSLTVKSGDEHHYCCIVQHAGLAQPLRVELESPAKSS
T1 sequence (P61769 21-119 limits assumed, chain 2 of 2): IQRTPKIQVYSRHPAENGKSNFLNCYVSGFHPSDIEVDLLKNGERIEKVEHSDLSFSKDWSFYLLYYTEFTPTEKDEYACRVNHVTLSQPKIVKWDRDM
Protocol: (§1) The binding affinity of antibodies to hFcRn was evaluated with Gator Bio-analysis system. Briefly, recombinant hFcRn-his/B2M heterodimer protein (Acrobio, Cat #FCM-H82W4) was loaded to anti-his sensor, serially diluted antibodies were used as analyte. Association and dissociation were performed in pH6.0 KD buffer.

[2] = biological target: T1, recombinant hFcRn-his/B2M heterodimer …; assay: as above; remark: listed apart in the source
Protocol: as §1

| Binder | Kd [1] | koff [1] | kon [1] | fold increase of binding affinity against 5F7-2a8-WT [2] |
| --- | --- | --- | --- | --- |
| B1 | 13.7 nM | 0.00398 s⁻¹ | 290000 M⁻¹ s⁻¹ | ~10 fold |
| B2 | 15.4 nM | 0.00277 s⁻¹ | 180000 M⁻¹ s⁻¹ | ~10 fold |
